Starred links: 1 amine or outer side, 2 acyl side, 3 side chain; linkers in the order of their positions; H or OH if unused. Non-standard residues stand in square brackets, D forms with d. Groups on a side chain read outwards from the residue. No end group written: not given here. *: point of attachment. C15 diacid = O=C(O)CCCCCCCCCCCCCC(=O)*; γGlu = O=C(O)[C@H](CCC(=O)[*:2])N[*:1]; NMeY = CN[C@@H](Cc1ccc(O)cc1)C(=O)O; AEEA = NCCOCCOCC(=O)O; Aib = CC(C)(N)C(=O)O
What was measured:
[1] = target: full-length human GLP-1R with an N-terminal FLAG tag, overexpressed on HEK-293T cells (human, UniProt P43220 24-463); assay: cell-based or functional assay
[2] = target: T1, full-length human GIPR with an N-terminal FLAG tag, overexpressed on HEK-293T cells (human, UniProt P48546 22-466); assay: cell-based or functional assay
T1 sequence (looked up): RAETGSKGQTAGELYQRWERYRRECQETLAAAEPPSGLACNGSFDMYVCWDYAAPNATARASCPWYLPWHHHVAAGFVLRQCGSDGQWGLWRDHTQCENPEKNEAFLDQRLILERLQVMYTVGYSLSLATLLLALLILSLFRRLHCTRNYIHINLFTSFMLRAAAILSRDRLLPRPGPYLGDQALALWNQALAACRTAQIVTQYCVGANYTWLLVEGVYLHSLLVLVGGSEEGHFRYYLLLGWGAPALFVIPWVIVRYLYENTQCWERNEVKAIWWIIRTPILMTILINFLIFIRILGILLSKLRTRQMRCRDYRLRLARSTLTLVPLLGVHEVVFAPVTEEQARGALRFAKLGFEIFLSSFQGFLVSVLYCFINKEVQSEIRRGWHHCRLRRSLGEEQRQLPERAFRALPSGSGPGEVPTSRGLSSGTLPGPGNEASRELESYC

human plasma proteins = assay: plasma protein binding, ultracentrifugation of spiked plasma, LC-MS/MS
dog plasma proteins = assay: as above
[3] = target: full-length human GLP-1R with an N-terminal FLAG tag (human, UniProt P43220 24-463); assay: cell-based or functional assay
[4] = target: T2, full-length human GIPR with an N-terminal FLAG tag (human, UniProt P48546 22-466); assay: cell-based or functional assay
T2 sequence (looked up): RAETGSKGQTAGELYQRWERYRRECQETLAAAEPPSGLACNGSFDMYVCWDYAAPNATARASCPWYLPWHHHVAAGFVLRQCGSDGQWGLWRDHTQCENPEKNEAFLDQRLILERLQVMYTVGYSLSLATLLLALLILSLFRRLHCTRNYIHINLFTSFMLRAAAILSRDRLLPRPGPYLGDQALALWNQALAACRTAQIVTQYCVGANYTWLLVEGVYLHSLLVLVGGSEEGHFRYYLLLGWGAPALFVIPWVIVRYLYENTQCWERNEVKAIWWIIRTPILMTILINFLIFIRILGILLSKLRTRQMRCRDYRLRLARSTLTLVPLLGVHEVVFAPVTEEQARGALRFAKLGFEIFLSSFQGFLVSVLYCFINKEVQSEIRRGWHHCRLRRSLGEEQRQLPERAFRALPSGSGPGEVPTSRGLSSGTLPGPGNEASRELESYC

Binder | Human GLP1R cAMP HEK293T EC50 [1] | Human GIPR cAMP, HEK293T EC50 [2] | Human PPB (Fu,plasma), fraction unbound (fraction unbound) (human plasma proteins) | further results
Me-Y[dA]EGTFISDYSIALDR[Aib]AQ[Aib]K([2OEG-γGlu-γGlu-C15 diacid])FVNWLLAQKG-OH [Compound 216] | 34.7 nM | 0.0003 nM |  | 
Me-Y[Aib]EGTFISDYSIALDR[Aib]AQ[Aib]K([2OEG-γGlu-C15 diacid])FVNWLLAQKG-OH [Compound 213] | 17 nM | 0.0003 nM |  | 
[NMeY][Aib]EGTFISDYSIAK([AEEA-AEEA-γGlu-γGlu-C15 diacid])DR[Aib]AQ[Aib]NFVNWLLAQK-NH2 (N-terminus assumed; SMILES CC[C@H](C)[C@H](NC(=O)[C@H](CO)NC(=O)[C@H](Cc1ccc(O)cc1)NC(=O)[C@H](CC(=O)O)NC(=O)[C@H](CO)NC(=O)[C@@H](NC(=O)[C@H](Cc1ccccc1)NC(=O)[C@@H](NC(=O)CNC(=O)[C@H](CCC(=O)O)NC(=O)C(C)(C)NC(=O)[C@H](Cc1ccc(O)cc1)NC)[C@@H](C)O)[C@@H](C)CC)C(=O)N[C@@H](C)C(=O)N[C@@H](CCCCNC(=O)COCCOCCNC(=O)COCCOCCNC(=O)CC[C@H](NC(=O)CC[C@H](NC(=O)CCCCCCCCCCCCCC(=O)O)C(=O)O)C(=O)O)C(=O)N[C@@H](CC(=O)O)C(=O)N[C@@H](CCCNC(=N)N)C(=O)NC(C)(C)C(=O)N[C@@H](C)C(=O)N[C@@H](CCC(N)=O)C(=O)NC(C)(C)C(=O)N[C@@H](CC(N)=O)C(=O)N[C@@H](Cc1ccccc1)C(=O)N[C@H](C(=O)N[C@@H](CC(N)=O)C(=O)N[C@@H](Cc1c[nH]c2ccccc12)C(=O)N[C@@H](CC(C)C)C(=O)N[C@@H](CC(C)C)C(=O)N[C@@H](C)C(=O)N[C@@H](CCC(N)=O)C(=O)N[C@@H](CCCCN)C(N)=O)C(C)C) [Compound 22] |  |  | 0.0413 | 
[NMeY][Aib]EGTFISDYSIALDR[Aib]AQ[Aib]K([AEEA-γGlu-γGlu-γGlu-C15 diacid])FVNWLLAQK-NH2 (N-terminus assumed; SMILES CC[C@H](C)[C@H](NC(=O)[C@H](CO)NC(=O)[C@H](Cc1ccc(O)cc1)NC(=O)[C@H](CC(=O)O)NC(=O)[C@H](CO)NC(=O)[C@@H](NC(=O)[C@H](Cc1ccccc1)NC(=O)[C@@H](NC(=O)CNC(=O)[C@H](CCC(=O)O)NC(=O)C(C)(C)NC(=O)[C@H](Cc1ccc(O)cc1)NC)[C@@H](C)O)[C@@H](C)CC)C(=O)N[C@@H](C)C(=O)N[C@@H](CC(C)C)C(=O)N[C@@H](CC(=O)O)C(=O)N[C@@H](CCCNC(=N)N)C(=O)NC(C)(C)C(=O)N[C@@H](C)C(=O)N[C@@H](CCC(N)=O)C(=O)NC(C)(C)C(=O)N[C@@H](CCCCNC(=O)COCCOCCNC(=O)CC[C@H](NC(=O)CC[C@H](NC(=O)CC[C@H](NC(=O)CCCCCCCCCCCCCC(=O)O)C(=O)O)C(=O)O)C(=O)O)C(=O)N[C@@H](Cc1ccccc1)C(=O)N[C@H](C(=O)N[C@@H](CC(N)=O)C(=O)N[C@@H](Cc1c[nH]c2ccccc12)C(=O)N[C@@H](CC(C)C)C(=O)N[C@@H](CC(C)C)C(=O)N[C@@H](C)C(=O)N[C@@H](CCC(N)=O)C(=O)N[C@@H](CCCCN)C(N)=O)C(C)C) [Compound 24] |  |  | 0.0512 | 
[NMeY][Aib]EGTFISDYSIALDR[Aib]K([AEEA-AEEA-γGlu-γGlu-C15 diacid])Q[Aib]NFVNWLLAQSPSSGAPPPS-NH2 (N-terminus assumed; SMILES CC[C@H](C)[C@H](NC(=O)[C@H](CO)NC(=O)[C@H](Cc1ccc(O)cc1)NC(=O)[C@H](CC(=O)O)NC(=O)[C@H](CO)NC(=O)[C@@H](NC(=O)[C@H](Cc1ccccc1)NC(=O)[C@@H](NC(=O)CNC(=O)[C@H](CCC(=O)O)NC(=O)C(C)(C)NC(=O)[C@H](Cc1ccc(O)cc1)NC)[C@@H](C)O)[C@@H](C)CC)C(=O)N[C@@H](C)C(=O)N[C@@H](CC(C)C)C(=O)N[C@@H](CC(=O)O)C(=O)N[C@@H](CCCNC(=N)N)C(=O)NC(C)(C)C(=O)N[C@@H](CCCCNC(=O)COCCOCCNC(=O)COCCOCCNC(=O)CC[C@H](NC(=O)CC[C@H](NC(=O)CCCCCCCCCCCCCC(=O)O)C(=O)O)C(=O)O)C(=O)N[C@@H](CCC(N)=O)C(=O)NC(C)(C)C(=O)N[C@@H](CC(N)=O)C(=O)N[C@@H](Cc1ccccc1)C(=O)N[C@H](C(=O)N[C@@H](CC(N)=O)C(=O)N[C@@H](Cc1c[nH]c2ccccc12)C(=O)N[C@@H](CC(C)C)C(=O)N[C@@H](CC(C)C)C(=O)N[C@@H](C)C(=O)N[C@@H](CCC(N)=O)C(=O)N[C@@H](CO)C(=O)N1CCC[C@H]1C(=O)N[C@@H](CO)C(=O)N[C@@H](CO)C(=O)NCC(=O)N[C@@H](C)C(=O)N1CCC[C@H]1C(=O)N1CCC[C@H]1C(=O)N1CCC[C@H]1C(=O)N[C@@H](CO)C(N)=O)C(C)C) [Compound 17] |  |  | 0.064 | Dog PPB (Fu,plasma), fraction unbound (fraction unbound) (dog plasma proteins): 0.0675
[NMeY][Aib]EGTFISDYSIAK([Gly-Gly-Glu-Glu-Glu-C15 diacid])DR[Aib]AQ[Aib]NFVNWLLAQK-NH2 (not fully specified) [Compound 30] |  |  | 0.0407 | 
Me-Y[Aib]EGTFISDYSIALDR[Aib]AQ[Aib]K([2OEG-C15 diacid])FVNWLLAQKG-OH [Compound 218] | 89.1 nM | 0.0006 nM |  | 
Me-Y[Aib]EGTFISDYSIALDR[Aib]AQ[Aib]K([2OEG-γGlu-γGlu-C15 diacid])FVNWLLAQK-NH2 [Compound 210] | 129 nM | 0.0003 nM |  | 
Me-Y[Aib]EGTFISDYSIALDR[Aib]AQ[Aib]KFVNWLLAQKG-OH (not fully specified (residues 1, 21)) [Compound 212] | 66.1 nM | 0.0002 nM |  | 
[NMeY][Aib]EGTFISDYSIALDR[Aib]AQ[Aib]K([AEEA-γGlu-γGlu-γGlu-C15 diacid])FVNWLL[Aib]QK-NH2 (N-terminus assumed; SMILES CC[C@H](C)[C@H](NC(=O)[C@H](CO)NC(=O)[C@H](Cc1ccc(O)cc1)NC(=O)[C@H](CC(=O)O)NC(=O)[C@H](CO)NC(=O)[C@@H](NC(=O)[C@H](Cc1ccccc1)NC(=O)[C@@H](NC(=O)CNC(=O)[C@H](CCC(=O)O)NC(=O)C(C)(C)NC(=O)[C@H](Cc1ccc(O)cc1)NC)[C@@H](C)O)[C@@H](C)CC)C(=O)N[C@@H](C)C(=O)N[C@@H](CC(C)C)C(=O)N[C@@H](CC(=O)O)C(=O)N[C@@H](CCCNC(=N)N)C(=O)NC(C)(C)C(=O)N[C@@H](C)C(=O)N[C@@H](CCC(N)=O)C(=O)NC(C)(C)C(=O)N[C@@H](CCCCNC(=O)COCCOCCNC(=O)CC[C@H](NC(=O)CC[C@H](NC(=O)CC[C@H](NC(=O)CCCCCCCCCCCCCC(=O)O)C(=O)O)C(=O)O)C(=O)O)C(=O)N[C@@H](Cc1ccccc1)C(=O)N[C@H](C(=O)N[C@@H](CC(N)=O)C(=O)N[C@@H](Cc1c[nH]c2ccccc12)C(=O)N[C@@H](CC(C)C)C(=O)N[C@@H](CC(C)C)C(=O)NC(C)(C)C(=O)N[C@@H](CCC(N)=O)C(=O)N[C@@H](CCCCN)C(N)=O)C(C)C) [Compound 29] |  |  | 0.018 | Human GLP1R cAMP HEK293T EC50 [3]: 47.1 nM; Human GIPR cAMP, HEK293T EC50 [4]: 0.0001 nM
Me-Y[Aib]EGTFISDYSIALDR[Aib]AQ[Aib]K([G5gEgE-C15 diacid])FVNWLLAQKG-OH [Compound 215] | 45.7 nM | 0.0002 nM |  | 
Me-Y[Aib]EGTFISDYSIALDR[Aib]AQ[Aib]K([2OEG-γGlu-γGlu-C15 diacid])FVNWLLAQRG-OH [Compound 211] | 174 nM | 0.0002 nM |  | 
Me-YAEGTFISDYSIALDR[Aib]AQ[Aib]K([2OEG-γGlu-γGlu-C15 diacid])FVNWLLAQKG-OH [Compound 217] | 4.9 nM | 0.0002 nM |  | 

Source: US20220227830A1, “QD DOSING OF GIP RECEPTOR AGONIST PEPTIDE COMPOUNDS AND USES THEREOF” (Takeda Pharmaceutical Company Limited, priority 2020, published 2022)
